Laboratory results as given in the supplement of paper PMC10724198.
± gives the standard deviation of the averaged measurements.

Tested on: Saccharomyces cerevisiae
Experiment: protein stability index of tFT-peptide fusion (C-terminal peptide) (PSI (0-1 scale)); higher = more stable (slower turnover)
Conditions: genetic background: wild type; temperature: 30 C
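Further: PSI is a weighted mean of sequencing reads over stability bins, variants kept only with over 10 reads, mCherry proximal and sfGFP distal, peptide attached via GGGS linker.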

Sequence | protein stability index
PCPRPTPLPPFP | 0.701 ± 0.055
TSGEIESTSKKK | 0.689 ± 0.055
PFRSFVFSLDPF | 0.725 ± 0.049
VKEHRPQRNPSH | 0.675 ± 0.016
PVPPPPPPFSLP | 0.727 ± 0.032
ANQKRTKQQHRR | 0.722 ± 0.01
CSLQCLGWPISS | 0.739 ± 0.087
KTMCNNLTKLQR | 0.622 ± 0.029
CLTSSIFSRSFA | 0.632 ± 0.04
WGRAGPSSPCSC | 0.709 ± 0.088
SVGLQLAFSAAV | 0.728 ± 0.061
RKKKTRGKEKRR | 0.683 ± 0.097
YRGSNWEGDTPS | 0.667 ± 0.054
CRVSIVPIKRYS | 0.578 ± 0.099
YGCSLFCPDCSI | 0.794 ± 0.15
RGPVSQNPEINF | 0.732 ± 0.02
IIPQSCTSGGHT | 0.711 ± 0.061
YREVGGVAERRR | 0.695 ± 0.044
VGGVGGGRAWWR | 0.685 ± 0.055
SLVLSFPLLSLP | 0.697 ± 0.025
GGRVPRCRTVLL | 0.681 ± 0.033
CGFLFPCSPSSK | 0.689 ± 0.068
QCLTVPRSAHLP | 0.607 ± 0.05
GVESRSCCVFWG | 0.72 ± 0.012
RFPLPGLISFSS | 0.742 ± 0.056
LRPLVRLLHSYP | 0.718 ± 0.031

Sequence | protein stability index
YGGDMHGNNFSG | 0.701 ± 0.011
QFEEFKRGFEVA | 0.722 ± 0.024
AEFSLFRPHSAA | 0.649 ± 0.11
SLQTRANTGLWT | 0.689 ± 0.034
VPLFLVPGLSAV | 0.602 ± 0.0083
RSTRDKTRLAKD | 0.743 ± 0.11
WGRQSERILRST | 0.606 ± 0.046
GERLGEWGGGVG | 0.669 ± 0.0093
SLHPPPPPFRLS | 0.753 ± 0.014
SPPVPLPYLASP | 0.663 ± 0.061
GGRSGVSGVVAG | 0.7021 ± 0.0049
RLRPLSPPTLCD | 0.665 ± 0.044
SRLGVGGGLCSW | 0.714 ± 0.11
DEVLVSGGKWWE | 0.73 ± 0.1
ILSGIGNGSGSE | 0.72 ± 0.06
TRAGRGGCASQD | 0.701 ± 0.028
GGGWSGRGVGDR | 0.727 ± 0.078
DLVNTVCTVLDN | 0.6836 ± 0.0039
KKKKKQRNQKAK | 0.612 ± 0.032
GSSYDSEISRQS | 0.732 ± 0.0089
GSRAWERSERVR | 0.649 ± 0.084
GVGVWWRGVIMG | 0.615 ± 0.0095
PVCIRSLGTALF | 0.675 ± 0.0086
CWGVGGRTVING | 0.671 ± 0.049
PPFTPLSCLPPP | 0.708 ± 0.038
AKKKHHKYRRNG | 0.6542 ± 0.0048

Sequence | protein stability index
LPFLLPLVTPLP | 0.696 ± 0.068
RVVWVWLMSALF | 0.54 ± 0.034
IFIVINGHFAGS | 0.66 ± 0.06
PSSPPLPPPSPP | 0.644 ± 0.03
VDLVSRVVFQDR | 0.7231 ± 0.0015
SPPPPHVPLSPS | 0.712 ± 0.032
SPSRPTPNTIGP | 0.615 ± 0.031
LLDLYTLSRLDP | 0.754 ± 0.043
PPSPPPPPPPPL | 0.7 ± 0.032
DVSSRDLCWLVC | 0.6422 ± 0.0052
GVLSLFGFNTVV | 0.71 ± 0.16
AVFYGRWRGVWE | 0.859 ± 0.12
IIKKKKNKARDI | 0.734 ± 0.067
CDRPERRRTHVY | 0.655 ± 0.041
GRGSAVTGVYGV | 0.664 ± 0.059
APPPPSLPVPST | 0.739 ± 0.015
RFSKGKPVSAGG | 0.632 ± 0.033
SVQIKKIRRKNN | 0.6227 ± 0.0037
CNSRVSAVGLII | 0.6303 ± 0.0018
SGTFACCLGVCL | 0.6806 ± 0.0062
PLSPLPPSPGPS | 0.766 ± 0.051
STKQTTTTERAI | 0.67 ± 0.013
ESQYAIFGHDIW | 0.709 ± 0.011
YLFSTGSTLHSH | 0.818 ± 0.088
AFHFFLIPHSFF | 0.639 ± 0.025
PYFVGSGLVVLC | 0.5639 ± 0.0055

Sequence | protein stability index
WLPTTPLPPLSP | 0.703 ± 0.018
YCTAGVCVKAGR | 0.765 ± 0.027
PFLLSPCSLSAS | 0.665 ± 0.026
VRVECGVWGSVS | 0.65806 ± 0.00012
PPRSPPLPPAPT | 0.762 ± 0.013
GCRSQRSDSLMM | 0.644 ± 0.028
ASPLFPLPPPPP | 0.71 ± 0.004
AYVQPASRSPPP | 0.735 ± 0.062
ACDFCIPGVRLD | 0.745 ± 0.022
VLGWCLCGRTCG | 0.6579 ± 0.0013
AEGPAGNRGLGG | 0.6564 ± 0.0058
KNKTTKKRKKRP | 0.695 ± 0.057
DTVTGNWGVGLG | 0.657 ± 0.02
PSPAPPPLPFPR | 0.72 ± 0.038
GALVLWTGCTYS | 0.726 ± 0.0033
YLSPSTPLPVVL | 0.64 ± 0.1
LVVGFRVGLRGV | 0.669 ± 0.035
ILSPLRHPEPTR | 0.70614 ± 9.6e-05
PARPQSFPPPNV | 0.669 ± 0.035
TWVGPIRISNQQ | 0.639 ± 0.01
HGNFLTALVGRI | 0.669 ± 0.046
ELELDRTEWVTI | 0.799 ± 0.05
VTEGVGGGKGRG | 0.597 ± 0.056
EKGAEGDHGEVR | 0.678 ± 0.017
CRWLGELGVWVF | 0.637 ± 0.062
FFPLPPSSPPSP | 0.7184 ± 0.0069

Sequence | protein stability index
LGRGRGGPLSGG | 0.7014 ± 0.003
AHQGSENRNMSV | 0.688 ± 0.043
ISDRKARSDKNK | 0.656 ± 0.071
AGPGMARERYFY | 0.634 ± 0.046
QPAVKIGYAMAL | 0.644 ± 0.048
SRHRVGLPIQIF | 0.526 ± 0.022
PPSPPHPIRPPA | 0.713 ± 0.025
KERLQLSVNLNI | 0.628 ± 0.067
TVERRYTGDWGG | 0.726 ± 0.032
PPTPTPPHPPPP | 0.611 ± 0.015
SLPSPSPPSHPL | 0.705 ± 0.033
VRGKGWRGGWWG | 0.682 ± 0.031
SGGRPVQSWCAW | 0.779 ± 0.29
GRNMQVTVQNRG | 0.735 ± 0.02
LFSARRKSPTSL | 0.708 ± 0.058
KKRTQKKKKYNR | 0.6943 ± 0.0063
VVGRVGGFVGPG | 0.677 ± 0.1
VVASSRSAQRLP | 0.7006 ± 0.0064
PPPLLPFPPIPR | 0.697 ± 0.033
GRGCRGKDWWLW | 0.74 ± 0.055
FEDIPSMEYRSI | 0.702 ± 0.05
CCGGRTWFVCGV | 0.699 ± 0.041
VWVGGVSVGFFG | 0.716 ± 0.061
VGQVGAGAVPVG | 0.677 ± 0.037
TPCTFPPLIRSP | 0.672 ± 0.039
LHAHTAPAHPKT | 0.689 ± 0.0087

Sequence | protein stability index
HVVLPPRYCISR | 0.696 ± 0.015
WAGGSGRRIGCR | 0.712 ± 0.0089
PPPASRPPHPTL | 0.746 ± 0.026
IGRRGINGLWGG | 0.627 ± 0.042
GHVCTRCVWPRV | 0.606 ± 0.055
PHRPRDFALTPS | 0.6905 ± 0.0048
GSFGQLIIRYSS | 0.568 ± 0.0088
PRSPPLTHVSLH | 0.697 ± 0.043
GAVSRRALPRRP | 0.709 ± 0.016
LVPLPLPPPPPS | 0.672 ± 0.0028
ARVIISGYWILY | 0.519 ± 0.048
PPPRPLSPPFPF | 0.641 ± 0.05
GGCCGRVWGSVE | 0.71 ± 0.054
PAQDCAATGVRR | 0.672 ± 0.037
RSDRDGPPRGDS | 0.719 ± 0.087
SAPLASRLCLFA | 0.644 ± 0.0065
PLILFLSLSRSV | 0.613 ± 0.066
LFWFVSLWGGFA | 0.529 ± 0.073
SVPPTCLHDAHF | 0.713 ± 0.053
VQLHIDVRSFLF | 0.67 ± 0.014
PTPPLLPPAPSP | 0.707 ± 0.048
PHRSVSRLTILS | 0.658 ± 0.012
GVDCPGPKRDRK | 0.626 ± 0.011
AFFYLRGQESLL | 0.688 ± 0.077
GGNTQTNYHGCL | 0.73227 ± 0.00035
CGRFGRGVDLGN | 0.687 ± 0.02

Sequence | protein stability index
SPLGPLGPPSET | 0.693 ± 0.052
HRRGRVAQFAIS | 0.644 ± 0.029
PYEFRLISRNTR | 0.669 ± 0.095
GVVIGGAGYKGT | 0.633 ± 0.058
WHGLLEWLAWRT | 0.736 ± 0.078
SRVTGPGRADGT | 0.691 ± 0.011
KGICALKIATGK | 0.603 ± 0.032
PVALYFIREFSP | 0.699 ± 0.013
DDWCLVGGLCDC | 0.684 ± 0.033
CLCITGIPVQGF | 0.653 ± 0.064
PPPLPTPSLPPP | 0.70185 ± 0.00011
AVVFCSIPCLRV | 0.575 ± 0.052
PFPSLLPALSSL | 0.678 ± 0.044
VTCRALTFSLLG | 0.635 ± 0.12
PFALPPPSPFPP | 0.7116 ± 0.0063
WLVRRVSSGQFG | 0.653 ± 0.062
VGGGGAELCVVE | 0.667 ± 0.022
IFIPRFDLPSFP | 0.788 ± 0.16
SCLFRVFMFHFS | 0.553 ± 0.04
AELPPETKRLTR | 0.626 ± 0.04
TLVPPPSPPPSP | 0.636 ± 0.065
TLLTIALLTGNL | 0.606 ± 0.063
LHLYPSLLLPGL | 0.742 ± 0.074
TQSAPGIPGAGE | 0.65 ± 0.025
DPPPLPPAHSAS | 0.658 ± 0.034
GEAREEEKKGRW | 0.631 ± 0.027

Sequence | protein stability index
GGVEVAQGVVWC | 0.715 ± 0.066
LGRPCGGVAGEQ | 0.637 ± 0.014
PLLPPSDTCSLL | 0.718 ± 0.089
SPPPPASPPAPP | 0.648 ± 0.062
LGGGSGCVEGGL | 0.713 ± 0.082
PDQPQPRPATNQ | 0.681 ± 0.022
TVSEQWKLLGER | 0.736 ± 0.051
ESRVLYGLCLWC | 0.596 ± 0.028
GQGEGRGKIKKG | 0.782 ± 0.037
PLPASFPPFPTL | 0.802 ± 0.036
SPLPPPSLPRPP | 0.641 ± 0.017
LPILPSPLPPPL | 0.69 ± 0.049
QPRLRPPLPSPP | 0.638 ± 0.069
YMGGGGASGAPA | 0.667 ± 0.047
GLCRLLEILKLR | 0.63 ± 0.054
WLEVHVRERPGL | 0.661 ± 0.035
PGNAEQGIAVHL | 0.626 ± 0.055
GVRAVRSCRMQR | 0.702 ± 0.072
TNQRKKTVAGEK | 0.672 ± 0.025
PYFSLFSRRSLN | 0.539 ± 0.02
